Data: publication PMC11148020, “PPIA dictates NRF2 stability to promote lung cancer progression” (Nature Communications, 2024)

Target: T1, Recombinant PPIA protein (PPIA WT) (human, UniProt P62937 1-165, 15N-labeled in the NMR experiment)
T1 construct: peptidylprolyl isomerase A (PPIA, CypA), called full-length PPIA for the co-crystal; free in solution for crystal and NMR; also called full-length PPIA; 15N-labeled PPIA; source: E. coli BL21 (DE3), purified (Ni-NTA; for crystallization also Superdex 75 gel filtration)
Assay: crystal structure; PPIA (50 mg/mL) incubated with PBM peptide (2 mM) at 4 °C for 2 h; hanging-drop co-crystallization, 25 mM Hepes, 25% PEG 3350, 5 mM TCEP, pH 7.5; 1.81 Å
Conditions: both partners purified

T1 sequence (P62937 whole entry): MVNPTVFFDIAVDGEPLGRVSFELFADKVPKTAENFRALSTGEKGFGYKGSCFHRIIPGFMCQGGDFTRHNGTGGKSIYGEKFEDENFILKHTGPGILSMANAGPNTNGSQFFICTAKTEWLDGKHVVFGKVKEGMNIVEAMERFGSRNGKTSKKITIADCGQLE

B1: NRF2 fragment PPIA-Binding Motif (PBM) peptide (peptide)
peptide: VAQVAPVD
notes: NRF2 residues 169-176, in the linker between the Neh4 and Neh5 domains; also called NRF2-PBM; source: synthetic peptide
binding result: binds
